Results on ten molecules are retold here after US20260250410A1 (SICHUAN HUIYU PHARMACEUTICAL, published 2026).

Substitutions are numbered along the chain they refer to.

The chains are these.
T1: CynoCDCP1 (Macaca fascicularis, UniProt A0A2K5VLA8 30-667)
T1 construct: extracellular domain; also called Macaca fascicularis CDCP1; monkey CDCP1; not shown: Fc or his tag
T1 sequence: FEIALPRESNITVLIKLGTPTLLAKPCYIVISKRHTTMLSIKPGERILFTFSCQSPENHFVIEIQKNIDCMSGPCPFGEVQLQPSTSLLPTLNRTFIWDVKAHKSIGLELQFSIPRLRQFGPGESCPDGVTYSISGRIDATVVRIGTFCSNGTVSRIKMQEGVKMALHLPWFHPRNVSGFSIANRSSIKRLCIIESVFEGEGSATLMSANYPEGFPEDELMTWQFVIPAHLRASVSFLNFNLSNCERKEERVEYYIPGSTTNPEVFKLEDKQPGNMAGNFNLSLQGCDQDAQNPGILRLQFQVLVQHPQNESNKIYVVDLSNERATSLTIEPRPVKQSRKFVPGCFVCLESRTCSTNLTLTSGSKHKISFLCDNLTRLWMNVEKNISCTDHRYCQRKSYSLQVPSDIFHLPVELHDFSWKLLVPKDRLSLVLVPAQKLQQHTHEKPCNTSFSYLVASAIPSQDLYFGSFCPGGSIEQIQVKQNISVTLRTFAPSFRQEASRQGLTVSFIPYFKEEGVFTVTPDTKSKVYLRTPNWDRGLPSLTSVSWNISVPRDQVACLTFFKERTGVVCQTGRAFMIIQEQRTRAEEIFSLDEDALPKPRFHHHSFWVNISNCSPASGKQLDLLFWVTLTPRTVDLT

T2: HuCDCP1-A (human, UniProt Q9H5V8 30-430)
T2 construct: range 30-430; expressed in HEK-293T, purified by Fc/his tag; also called human CDCP1-A; membrane-distal region of CDCP1; not shown: Fc or his tag
T2 sequence (looked up): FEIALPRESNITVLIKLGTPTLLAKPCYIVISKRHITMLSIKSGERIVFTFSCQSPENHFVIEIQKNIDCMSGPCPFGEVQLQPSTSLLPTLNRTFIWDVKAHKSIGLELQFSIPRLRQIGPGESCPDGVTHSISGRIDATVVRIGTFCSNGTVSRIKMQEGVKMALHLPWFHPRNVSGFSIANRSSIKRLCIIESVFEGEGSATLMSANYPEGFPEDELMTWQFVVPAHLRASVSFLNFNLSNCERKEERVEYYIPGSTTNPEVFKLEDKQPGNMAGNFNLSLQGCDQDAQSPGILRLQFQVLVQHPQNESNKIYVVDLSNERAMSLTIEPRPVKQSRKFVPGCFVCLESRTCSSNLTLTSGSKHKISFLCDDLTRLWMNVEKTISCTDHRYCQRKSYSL

T3: RatCDCP1 (rat, UniProt D3ZVA1 29-666)
T3 construct: extracellular domain; not shown: Fc or his tag
T3 sequence: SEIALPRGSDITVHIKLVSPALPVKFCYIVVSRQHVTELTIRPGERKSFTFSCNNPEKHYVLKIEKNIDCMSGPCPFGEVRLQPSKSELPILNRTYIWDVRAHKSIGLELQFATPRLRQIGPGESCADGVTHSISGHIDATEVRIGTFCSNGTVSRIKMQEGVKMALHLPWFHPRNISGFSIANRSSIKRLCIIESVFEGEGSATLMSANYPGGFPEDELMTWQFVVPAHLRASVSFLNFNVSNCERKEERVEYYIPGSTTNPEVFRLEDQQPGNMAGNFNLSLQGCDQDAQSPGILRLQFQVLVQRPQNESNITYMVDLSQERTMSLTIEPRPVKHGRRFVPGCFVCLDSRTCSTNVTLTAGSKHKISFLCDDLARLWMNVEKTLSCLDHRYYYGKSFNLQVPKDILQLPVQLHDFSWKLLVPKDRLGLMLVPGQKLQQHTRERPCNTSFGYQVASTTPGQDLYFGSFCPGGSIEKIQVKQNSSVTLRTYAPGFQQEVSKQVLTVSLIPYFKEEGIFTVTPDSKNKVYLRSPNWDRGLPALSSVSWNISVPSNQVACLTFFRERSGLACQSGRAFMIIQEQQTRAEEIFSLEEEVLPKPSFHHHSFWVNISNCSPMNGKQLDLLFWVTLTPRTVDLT

T4: HuCDCP1-C (human, UniProt Q9H5V8 30-667)
T4 construct: range 30-667; expressed in HEK-293T, purified by Fc/his tag; also called human CDCP1-C; full-length extracellular domain of human CDCP1; not shown: Fc or his tag
T4 sequence (looked up): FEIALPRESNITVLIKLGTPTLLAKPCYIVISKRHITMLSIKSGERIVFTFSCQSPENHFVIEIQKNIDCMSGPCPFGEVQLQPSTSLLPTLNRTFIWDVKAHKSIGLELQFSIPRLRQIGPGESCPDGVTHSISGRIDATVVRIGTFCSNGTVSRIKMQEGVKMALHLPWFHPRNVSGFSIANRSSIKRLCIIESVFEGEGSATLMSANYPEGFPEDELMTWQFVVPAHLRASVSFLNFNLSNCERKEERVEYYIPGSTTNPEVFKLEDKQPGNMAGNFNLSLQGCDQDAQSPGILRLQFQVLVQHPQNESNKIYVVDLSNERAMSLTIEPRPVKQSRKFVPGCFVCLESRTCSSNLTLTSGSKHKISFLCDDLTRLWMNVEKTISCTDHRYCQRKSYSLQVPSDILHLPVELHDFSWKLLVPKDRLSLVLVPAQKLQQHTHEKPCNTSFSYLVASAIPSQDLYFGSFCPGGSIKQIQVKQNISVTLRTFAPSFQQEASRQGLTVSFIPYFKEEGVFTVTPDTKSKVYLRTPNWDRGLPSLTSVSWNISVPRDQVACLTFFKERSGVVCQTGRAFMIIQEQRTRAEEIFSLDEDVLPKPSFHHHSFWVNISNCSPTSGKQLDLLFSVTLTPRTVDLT

B1: 3F1A11 (antibody, V domains shown)
VH: EVKLVESGPGLVKPSQSLSLTCTVTGYSITSDYAWNWIRQFPGNKLEWMGYISYNTYTSYNPSLKSRISVTRDTSKNQFFLQLKSVTIEDTATYFCAGGDYYGTGAVDYWGQGTTVTVSS
VL: EIVLTQSPLSLPVSLGDQASISCRSRQTLVHTNGNTYLDWYLQKPGQSPKLLIYKVSIRFSGVPDRFSGSRSGTDFTLKISRVEAEDLGIYYCFQGSHVPWTFGGGTKLEIK
notes: murine hybridoma mAb
B2: 3C11 (antibody, V domains shown)
VH: EVQLQQSGTVLARPGASVKMSCKASGYNFISYWLHWIKQRPGQGLEWIGGIYPGNTDTTYNQKFKGKAKVTAVTSATTAYMELSSLTNEDSAVYYCIRYDYDRGMDYWGQGTTVTVSS
VL: DIQMTQSPSSFSVSLGDRVTITCRASEDIYYRLAWYQQKPGNAPRLLISGATALETGVPSRFSGSGSGKDYTLSITSLQTEDVATYYCQHYWNIPWTFGGGTKLEIK
notes: murine hybridoma mAb
B3: 3B12H5 (antibody, V domains shown)
VH: EVQLQQSGTVLARPGASVKMSCKASGYSFTIYWVHWVKQRPGQGLEWIGAVYPGNDDTSYNQNFKGKAKLTAVTSATTAYMELSSLTIDDSAVYYCTRHTYDEVFDYWGQGTTVTVSS
VL: B2 VL with Q3V, F11L, R24K, A51G, A53N, T56A, V58I, T85I, I94T
notes: murine hybridoma mAb; also called 3B12HS
B4: 12E6 (antibody, V domains shown)
VH: EVQLKESGPGILQPSQTLSLTCSFSGFSLSTSGMGVGWIRQPSGKGLEWLAHIWWDDVKLYNPALKSRLTISKETSNNQVFLKIASVDAADTATYYCARIDHGYGSNYWDFDVWGAGTTVTVSS
VL: DIVMTQAAPSVPVTPGGSVSISCRSTKSLLHSDGKTYLYWFLQRPGQSPQLLIYRMSNLASGVPDRFSGSGSGTAFTLRISRVEAEDVGVYYCMQHLEYPFTFGSGTKLEIK
notes: murine hybridoma mAb
B5: G10F6 (antibody, V domains shown)
VH: EVKLVESGPGILQPSQTLSLTCSFSGFSLSTSGMGVSWVRQPSGKGLEWLAHIYWDDDKRYNPSLKGRLTISKDTPRNQVFLEITSVDTTDTATYYCARVPGNWDEDAMDYWGQGTTVTVSS
VL: DIQMTQSPLSLPVSLGDQASISCRSSQNIVHTNGNTYLEWYLQKVGQSPKLLIYKVSNRFSGVPDRFSGSGSGTDFTLKISRVEAEDLGVYYCFQGSHVPYTFGGGTKLEIK
notes: murine hybridoma mAb
B6: 14A10C5 (antibody, V domains shown)
VH: EVKLVESGPGILQPSQTLSLTCSFSGFSLSTSGMGVSWIRQPSGKGLEWLAHIYWDDEKRYNPSLKSRLTISKDTSSNQVFLKITSVDTADTATYYCAREGSANWEAMDYWGQGTTVTVSS
VL: B5 VL with Q3V, S7A, P8A, H31Y, N35I, V45P, G73A, G96S, Y101W
notes: murine hybridoma mAb; also called 14A10CS
B7: 5B8 (antibody, V domains shown)
VH: EVQLKESGGGLVQPGGSLRISCATSGLTFTHYHMSWVRQPPGKAPEWLAIIRNKAYGYTTDYSASVRGRFTISRDDSQSILYLQMNTLRAEDSATYYCVREGGYGYDGTFAYWGQGTTVTVSS
VL: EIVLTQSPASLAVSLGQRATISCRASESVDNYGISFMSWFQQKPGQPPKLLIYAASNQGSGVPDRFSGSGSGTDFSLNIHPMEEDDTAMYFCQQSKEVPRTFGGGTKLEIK
notes: murine hybridoma mAb
B8: 8C9 (antibody, V domains shown)
VH: B7 VH with A90P
VL: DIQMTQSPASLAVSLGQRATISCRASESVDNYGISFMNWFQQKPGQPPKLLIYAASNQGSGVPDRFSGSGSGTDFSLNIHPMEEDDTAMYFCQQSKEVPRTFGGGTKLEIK
notes: murine hybridoma mAb
B9: 8E5 (antibody, V domains shown)
VH: EVQLKESGPELKKPGETVKISCKASGYTLTDFSMHWLKQAPGKGLKWMGWINTETGAPTYADDFKGRFALSLDTSANTAYLQINNLKNEDTATYFCSRGRDYDPHFDYWGQGTTVTVSS
VL: EIVLTQSPATLSVTPGDRVSLSCRASQSISDFLHWYQQRSHESPRLLIKYASQSISGIPSRFGGSGSGSDFTLNINTVEPEDVGMYYCQSAHSFPYTFGGGTKLEIK
notes: murine hybridoma mAb; also called 8ES
B10: 6A7 (antibody, V domains shown)
VH: EVQLKESGAELVRPGASVKVSCKASGYSFTSYWMNWVKQRPGQGLEWIGMIHPSDSETKLNQKFRDRASLTVDKSSSTAYMQLSSPTSEDSAVYYCTINYESFYYAMDYWGQGTTVTVSS
VL: DIVMTQSPASLAVSLGQRATISCRASKSVSTSGYSYMHWYQQKPGQPPKLLLYLASNLESGVPARFSGSGSGADFTLNIHPVEEEDAATYYCLHSRELPYTFGGGTKLEIK
notes: murine hybridoma mAb

By EC50 is commonly meant the concentration at which the effect is half-maximal. A low value points to higher potency in that assay.

For the first test, the target named is T1, CynoCDCP1. In words: SPR (Caterra or Biacore), antigen immobilized. Background: Surface plasmon resonance follows binding to a sensor surface in real time, without labels.
With B1, the EC50 is 115 nM.

B2: it took 23.6 nM to reach a half-maximal effect (EC50).

Consider B3, for which the response was half-maximal at 4.5 nM (EC50).

Take B4: the EC50 is 1.45 nM.

The molecule B5 came in with an EC50 of 4.47 nM.

Consider B6, for which the EC50 was 98.3 nM.

In turn, B7 gave an EC50 of 0.136 nM.

In the case of B8, the response was half-maximal at 0.564 nM (EC50).

As for B9, the EC50 stood at 0.0516 nM.

In turn, B10 returned an EC50 of 9.96 nM.

In another test the target is T2, HuCDCP1-A. In words: SPR (Caterra or Biacore), antigen immobilized.
B1: the response was half-maximal at 127 nM (EC50).

On to B2, for which the binding result is “no binding (tested: 150 nM highest concentration)”.

With B3, the EC50 worked out at 52.3 nM.

The molecule B4 showed an EC50 of 1.67 nM.

As for B5, the binding result is given as “no binding (tested: 150 nM highest concentration)”.

Regarding B6, the binding result is listed as “no binding (tested: 150 nM highest concentration)”.

Take B7: the binding result is on record as “no binding (tested: 150 nM highest concentration)”.

As for B8, the binding result is recorded as “no binding (tested: 150 nM highest concentration)”.

As for B9, the response was half-maximal at 79.3 nM (EC50).

In the case of B10, the binding result is “no binding (tested: 150 nM highest concentration)”.

Another test addresses T3, RatCDCP1. The test is described as follows: SPR (Caterra or Biacore), antigen immobilized.
B1 had an EC50 of 17 nM.

With B2, the binding result is on record as “no binding (tested: 150 nM highest concentration)”.

For B3, the binding result was “no binding (tested: 150 nM highest concentration)”.

For the molecule B4, the binding result is “no binding (tested: 150 nM highest concentration)”.

As to B5, the binding result is “no binding (tested: 150 nM highest concentration)”.

As for B6, the binding result is listed as “no binding (tested: 150 nM highest concentration)”.

As to B7, a half-maximal effect (EC50) was put at 18 nM.

Turning to B8, the response was half-maximal at 30.5 nM (EC50).

As for B9, the EC50 stood at 50.5 nM.

In turn, B10 gave an EC50 of 91.4 nM.

For a further test, the target named is T4, HuCDCP1-C. In words: SPR (Caterra or Biacore), antigen immobilized.
Regarding B1, the EC50 came to 37.9 nM.

Take B2: the EC50 turned out to be 3.96 nM.

As for B3, the EC50 is 0.723 nM.

As for B4, the response was half-maximal at 0.0634 nM (EC50).

The molecule B5 had an EC50 of 5.63 nM.

In turn, B6 returned an EC50 of 2.02 nM.

Consider B7, for which it took 1.19 nM to reach a half-maximal effect (EC50).

For B8, it took 1.72 nM to reach a half-maximal effect (EC50).

In the case of B9, a half-maximal response (EC50) required 0.105 nM.

Molecule B10 yielded an EC50 of 9.65 nM.
